Measured values: patent publication EP4537907A1

How the values were obtained:
[1] = target: SNX18 in human lung fibroblasts (human) (UniProt Q96RF0); assay: LRC-TriCEPS ligand-receptor capture on living human lung fibroblasts (n=3 donors), LC-MS/MS enrichment; reference ligand transferrin (TRFE)
[2] = target: RECK on human lung fibroblasts (human) (UniProt O95980); assay: as above
[3] = target: CD248 on human lung fibroblasts (human) (UniProt Q9HCU0); assay: as above
[4] = target: CSPG4 on human lung fibroblasts (human) (UniProt Q6UVK1); assay: as above
[5] = target: ADT3 in human lung fibroblasts (human) (UniProt P12236); assay: as above
[6] = target: CAVN1 in human lung fibroblasts (human) (UniProt Q6NZI2); assay: as above
[7] = target: GPC1 on human lung fibroblasts (human) (UniProt P35052); assay: as above
[8] = target: ADRB1 on human lung fibroblasts (human) (UniProt P08588); assay: as above
[9] = target: NRP1 on human lung fibroblasts (human) (UniProt O14786); assay: as above
[10] = target: CD44 on human lung fibroblasts (human) (UniProt P16070); assay: as above
[11] = target: SNX18 in human lung fibroblasts (human) (UniProt Q96RF0); assay: LRC-TriCEPS ligand-receptor capture on living human lung fibroblasts (n=3 donors), LC-MS/MS enrichment; reference ligand BSA
[12] = target: RECK on human lung fibroblasts (human) (UniProt O95980); assay: as above
[13] = target: CD248 on human lung fibroblasts (human) (UniProt Q9HCU0); assay: as above
[14] = target: CSPG4 on human lung fibroblasts (human) (UniProt Q6UVK1); assay: as above
[15] = target: ADT3 in human lung fibroblasts (human) (UniProt P12236); assay: as above
[16] = target: CAVN1 in human lung fibroblasts (human) (UniProt Q6NZI2); assay: as above
[17] = target: GPC1 on human lung fibroblasts (human) (UniProt P35052); assay: as above
[18] = target: ADRB1 on human lung fibroblasts (human) (UniProt P08588); assay: as above
[19] = target: NRP1 on human lung fibroblasts (human) (UniProt O14786); assay: as above
[20] = target: CD44 on human lung fibroblasts (human) (UniProt P16070); assay: as above

Sequence of CD44 on human lung fibroblasts (human) (P16070 21-742): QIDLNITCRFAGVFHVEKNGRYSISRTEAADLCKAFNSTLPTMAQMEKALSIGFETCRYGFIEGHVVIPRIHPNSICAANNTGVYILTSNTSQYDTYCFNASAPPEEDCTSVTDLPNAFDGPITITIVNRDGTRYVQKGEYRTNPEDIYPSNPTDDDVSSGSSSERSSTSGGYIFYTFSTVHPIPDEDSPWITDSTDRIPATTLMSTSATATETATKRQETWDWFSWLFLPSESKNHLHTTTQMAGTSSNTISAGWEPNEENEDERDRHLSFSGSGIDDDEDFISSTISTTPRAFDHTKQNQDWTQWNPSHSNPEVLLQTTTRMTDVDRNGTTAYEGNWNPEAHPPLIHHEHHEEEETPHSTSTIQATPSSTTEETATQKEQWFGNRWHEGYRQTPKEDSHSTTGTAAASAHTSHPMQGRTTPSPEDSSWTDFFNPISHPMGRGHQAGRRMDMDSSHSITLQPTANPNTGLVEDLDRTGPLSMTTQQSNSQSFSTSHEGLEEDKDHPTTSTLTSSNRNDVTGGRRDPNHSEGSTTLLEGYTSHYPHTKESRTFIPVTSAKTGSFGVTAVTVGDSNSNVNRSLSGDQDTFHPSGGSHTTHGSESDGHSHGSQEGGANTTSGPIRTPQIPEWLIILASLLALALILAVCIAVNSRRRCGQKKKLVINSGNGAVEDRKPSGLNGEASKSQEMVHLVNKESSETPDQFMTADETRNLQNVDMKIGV
Sequence of NRP1 on human lung fibroblasts (human) (O14786 22-923): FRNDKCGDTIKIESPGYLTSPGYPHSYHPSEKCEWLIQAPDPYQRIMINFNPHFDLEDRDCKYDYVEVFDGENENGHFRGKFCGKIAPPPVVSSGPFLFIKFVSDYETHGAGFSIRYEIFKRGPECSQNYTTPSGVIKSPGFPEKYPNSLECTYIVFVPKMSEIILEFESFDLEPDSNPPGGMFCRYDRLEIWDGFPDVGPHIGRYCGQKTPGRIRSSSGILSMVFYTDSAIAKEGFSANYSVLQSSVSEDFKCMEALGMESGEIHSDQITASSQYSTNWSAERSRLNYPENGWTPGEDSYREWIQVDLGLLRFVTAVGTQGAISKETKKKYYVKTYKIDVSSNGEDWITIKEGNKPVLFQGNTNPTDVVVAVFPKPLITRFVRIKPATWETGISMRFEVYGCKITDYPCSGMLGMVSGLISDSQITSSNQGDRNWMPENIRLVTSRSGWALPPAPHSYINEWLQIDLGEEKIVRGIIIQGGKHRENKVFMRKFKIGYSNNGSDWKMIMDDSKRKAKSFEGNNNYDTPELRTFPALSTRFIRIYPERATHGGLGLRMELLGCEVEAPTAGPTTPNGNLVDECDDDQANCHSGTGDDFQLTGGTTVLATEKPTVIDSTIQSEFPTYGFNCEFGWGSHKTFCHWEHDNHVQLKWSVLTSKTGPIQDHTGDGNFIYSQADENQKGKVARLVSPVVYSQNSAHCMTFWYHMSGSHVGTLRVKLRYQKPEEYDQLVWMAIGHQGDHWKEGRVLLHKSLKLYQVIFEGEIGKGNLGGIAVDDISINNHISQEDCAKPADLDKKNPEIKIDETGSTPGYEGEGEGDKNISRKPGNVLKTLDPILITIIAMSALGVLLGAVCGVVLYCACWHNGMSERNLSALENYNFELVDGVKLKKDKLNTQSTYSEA
Sequence of CD248 on human lung fibroblasts (human) (Q9HCU0 18-757): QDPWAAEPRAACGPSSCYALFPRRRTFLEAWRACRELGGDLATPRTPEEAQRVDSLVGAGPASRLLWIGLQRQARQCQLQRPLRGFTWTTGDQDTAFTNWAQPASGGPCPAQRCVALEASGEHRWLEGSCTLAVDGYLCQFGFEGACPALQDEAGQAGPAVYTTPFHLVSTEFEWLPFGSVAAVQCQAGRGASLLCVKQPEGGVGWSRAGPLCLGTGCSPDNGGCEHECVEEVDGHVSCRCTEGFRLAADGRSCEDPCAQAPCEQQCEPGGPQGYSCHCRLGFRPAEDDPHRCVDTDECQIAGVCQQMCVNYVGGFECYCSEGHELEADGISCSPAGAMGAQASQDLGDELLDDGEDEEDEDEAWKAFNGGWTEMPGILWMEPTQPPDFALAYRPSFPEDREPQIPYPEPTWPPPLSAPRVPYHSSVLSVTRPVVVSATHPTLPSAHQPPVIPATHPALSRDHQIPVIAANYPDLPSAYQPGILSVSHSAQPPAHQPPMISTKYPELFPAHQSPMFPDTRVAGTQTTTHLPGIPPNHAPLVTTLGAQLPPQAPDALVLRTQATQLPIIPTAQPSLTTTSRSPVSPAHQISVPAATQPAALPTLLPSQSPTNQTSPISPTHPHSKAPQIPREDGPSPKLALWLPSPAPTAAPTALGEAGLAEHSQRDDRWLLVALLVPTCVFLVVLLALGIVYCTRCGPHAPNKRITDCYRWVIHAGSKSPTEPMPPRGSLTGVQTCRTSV
Sequence of RECK on human lung fibroblasts (human) (O95980 23-942): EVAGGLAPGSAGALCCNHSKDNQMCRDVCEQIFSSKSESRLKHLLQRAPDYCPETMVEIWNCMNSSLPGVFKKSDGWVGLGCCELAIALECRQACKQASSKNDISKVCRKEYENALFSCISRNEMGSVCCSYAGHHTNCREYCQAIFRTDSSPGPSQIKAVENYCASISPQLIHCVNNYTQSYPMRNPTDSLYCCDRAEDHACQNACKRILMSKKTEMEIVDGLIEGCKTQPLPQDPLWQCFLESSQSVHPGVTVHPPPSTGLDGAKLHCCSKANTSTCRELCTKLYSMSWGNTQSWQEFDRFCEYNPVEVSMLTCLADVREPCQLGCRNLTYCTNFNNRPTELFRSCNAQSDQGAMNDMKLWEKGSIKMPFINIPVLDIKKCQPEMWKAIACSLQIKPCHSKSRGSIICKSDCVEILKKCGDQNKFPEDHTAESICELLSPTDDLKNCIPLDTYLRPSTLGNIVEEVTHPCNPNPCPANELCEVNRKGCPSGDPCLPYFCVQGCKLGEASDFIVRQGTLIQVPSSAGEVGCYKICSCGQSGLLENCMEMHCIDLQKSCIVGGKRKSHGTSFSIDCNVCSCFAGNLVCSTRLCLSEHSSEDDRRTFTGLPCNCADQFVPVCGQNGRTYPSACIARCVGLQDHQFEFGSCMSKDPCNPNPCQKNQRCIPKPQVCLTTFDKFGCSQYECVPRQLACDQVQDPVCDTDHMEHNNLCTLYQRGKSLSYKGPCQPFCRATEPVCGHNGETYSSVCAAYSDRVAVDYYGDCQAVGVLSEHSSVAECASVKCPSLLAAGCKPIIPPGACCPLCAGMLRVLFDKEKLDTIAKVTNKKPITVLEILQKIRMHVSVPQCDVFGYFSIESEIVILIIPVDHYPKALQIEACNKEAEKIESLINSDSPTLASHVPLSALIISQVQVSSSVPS
Sequence of SNX18 in human lung fibroblasts (human) (Q96RF0 whole entry): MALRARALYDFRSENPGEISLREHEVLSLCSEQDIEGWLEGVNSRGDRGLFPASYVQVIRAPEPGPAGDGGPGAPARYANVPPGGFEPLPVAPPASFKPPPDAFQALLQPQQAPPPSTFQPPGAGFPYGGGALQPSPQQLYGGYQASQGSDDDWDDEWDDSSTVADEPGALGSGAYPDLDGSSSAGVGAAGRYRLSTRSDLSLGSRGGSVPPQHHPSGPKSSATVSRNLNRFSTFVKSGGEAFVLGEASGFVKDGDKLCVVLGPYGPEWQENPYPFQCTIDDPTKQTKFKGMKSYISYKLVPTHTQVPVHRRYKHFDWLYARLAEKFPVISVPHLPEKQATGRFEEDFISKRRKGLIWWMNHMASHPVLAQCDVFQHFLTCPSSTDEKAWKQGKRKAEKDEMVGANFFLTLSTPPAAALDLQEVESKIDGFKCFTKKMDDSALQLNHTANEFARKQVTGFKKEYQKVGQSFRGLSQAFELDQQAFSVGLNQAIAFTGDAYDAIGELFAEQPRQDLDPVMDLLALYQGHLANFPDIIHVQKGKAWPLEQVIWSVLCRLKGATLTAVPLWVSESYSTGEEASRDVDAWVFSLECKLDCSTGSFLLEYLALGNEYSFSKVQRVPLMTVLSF
Sequence of ADT3 in human lung fibroblasts (human) (P12236 whole entry): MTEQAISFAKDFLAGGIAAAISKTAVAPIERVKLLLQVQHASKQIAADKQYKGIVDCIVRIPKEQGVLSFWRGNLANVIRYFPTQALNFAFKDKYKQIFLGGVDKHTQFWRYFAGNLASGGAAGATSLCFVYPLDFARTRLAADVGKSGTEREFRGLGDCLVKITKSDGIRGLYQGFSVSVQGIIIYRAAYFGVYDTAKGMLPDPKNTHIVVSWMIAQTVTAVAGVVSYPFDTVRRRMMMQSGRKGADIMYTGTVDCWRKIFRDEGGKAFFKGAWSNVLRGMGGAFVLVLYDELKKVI
Sequence of CAVN1 in human lung fibroblasts (human) (Q6NZI2 whole entry): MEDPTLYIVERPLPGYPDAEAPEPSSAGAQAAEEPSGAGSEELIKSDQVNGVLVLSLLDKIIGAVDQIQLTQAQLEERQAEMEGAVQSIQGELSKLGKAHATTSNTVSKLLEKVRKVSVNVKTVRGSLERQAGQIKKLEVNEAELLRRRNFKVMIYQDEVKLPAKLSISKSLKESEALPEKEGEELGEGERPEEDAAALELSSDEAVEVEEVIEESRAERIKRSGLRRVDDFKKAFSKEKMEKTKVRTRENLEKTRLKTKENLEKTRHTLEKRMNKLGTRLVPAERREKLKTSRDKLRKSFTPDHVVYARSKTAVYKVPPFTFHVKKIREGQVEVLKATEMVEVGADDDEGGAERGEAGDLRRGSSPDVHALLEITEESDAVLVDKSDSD

- log2(FC) IGFBP5 vs TRFE (log2 fold change) [1]: -1.7
- log2(FC) IGFBP5 vs TRFE (log2 fold change) [2]: -2.3
- log2(FC) IGFBP5 vs TRFE (log2 fold change) [3]: -1.8
- log2(FC) IGFBP5 vs TRFE (log2 fold change) [4]: -2.3
- log2(FC) IGFBP5 vs TRFE (log2 fold change) [5]: -1
- log2(FC) IGFBP5 vs TRFE (log2 fold change) [6]: -1
- log2(FC) IGFBP5 vs TRFE (log2 fold change) [7]: -5.5
- log2(FC) IGFBP5 vs TRFE (log2 fold change) [8]: -4.1
- log2(FC) IGFBP5 vs TRFE (log2 fold change) [9]: -3.7
- log2(FC) IGFBP5 vs TRFE (log2 fold change) [10]: -0.6
- log2(FC) IGFBP5 vs BSA (log2 fold change) [11]: -2.5
- log2(FC) IGFBP5 vs BSA (log2 fold change) [12]: -4.3
- log2(FC) IGFBP5 vs BSA (log2 fold change) [13]: -2.2
- log2(FC) IGFBP5 vs BSA (log2 fold change) [14]: -2.2
- log2(FC) IGFBP5 vs BSA (log2 fold change) [15]: -1.6
- log2(FC) IGFBP5 vs BSA (log2 fold change) [16]: -1.5
- log2(FC) IGFBP5 vs BSA (log2 fold change) [17]: -5.9
- log2(FC) IGFBP5 vs BSA (log2 fold change) [18]: -4.9
- log2(FC) IGFBP5 vs BSA (log2 fold change) [19]: -3.8
- log2(FC) IGFBP5 vs BSA (log2 fold change) [20]: -0.8
Substance: recombinant human IGFBP5 (from UniProt P24593 21-272) (ligand)
